From patent US20080206139A1, “DELIVERY SYSTEM FOR DIAGNOSTIC AND THERAPEUTIC AGENTS” (The Penn State Research Foundation, priority 2006, published 2008)

Key:
U251 glioma cells = experiment: Flow cytometry of intracellular doxorubicin fluorescence, with or without Pgp inhibitor cyclosporine A; format: cell-based, Human; conditions: 20 μM drug, 2 h
Description: Flow cytometry: Flow cytometry was used to measure total intracellular doxorubicin fluorescence. In this report we refer to fluorescence intensity as intracellular drug content. 1×10^6 cells were exposed to 20 μM of drug as (a) free DXR (b) DXR encapsulated IL13 conjugated liposomes (c) DXR encapsulated unconjugated liposomes for 2 h. All drug treatments and post treatment incubations were performed in complete growth medium. The cells were washed to remove any free adherent DXR using PBS and centrifuged. Cells were released from tissue culture dishes with 0.05% trypsin/0.02% EDTA followed by PBS washing (centrifugation, 5 min 500 g) and resuspended in PBS for flow cytometry assay. The intracellular accumulation of inherently fluorescent doxorubicin was evaluated using a fluorescence activated cell analyzer. A single 15 mW argon ion laser beam (488 nm) was used to excite the fluorescence of DXR. A total of 10000 cells were analyzed for each histogram. Experiments were repeated 3 times and the fluorescence intensities of DXR were expressed in arbitrary units.
Effect of Pgp inhibitor on the internalization of IL13 conjugated liposomes in the glioma cells: About 50000 U251 glioma cells were plated in a small petridish and were exposed to either IL13 conjugated liposomes carrying 20 μM of doxorubicin or the same concentration of free doxorubicin (20 μM) for 2 hours. […]

IL-13Rα2 = target: T1, IL-13Rα2 (Homo sapiens, UniProt Q14627); experiment: Cytotoxicity neutralization assay with IL-13 and its mutants against cytotoxin IL13-PE38QQR; format: cell-based; conditions: 100 ng/ml protein; cytotoxin IL13-PE38QQR fixed at 10 ng/ml
T1 sequence (Q14627 27-380): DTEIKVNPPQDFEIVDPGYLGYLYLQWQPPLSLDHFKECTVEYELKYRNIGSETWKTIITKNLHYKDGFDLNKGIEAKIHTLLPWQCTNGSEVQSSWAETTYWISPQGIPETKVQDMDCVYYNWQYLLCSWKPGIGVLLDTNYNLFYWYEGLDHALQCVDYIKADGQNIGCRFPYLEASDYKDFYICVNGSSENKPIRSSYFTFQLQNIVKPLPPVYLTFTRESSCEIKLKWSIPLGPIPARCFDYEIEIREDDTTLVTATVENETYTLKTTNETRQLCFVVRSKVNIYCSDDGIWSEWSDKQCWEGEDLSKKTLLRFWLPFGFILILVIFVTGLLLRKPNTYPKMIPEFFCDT
Description: Additionally, position K105 of this region of IL-13 is mutated into a variety of amino acids and the mutants' cytotoxic neutralization potential and binding affinity towards IL-13Rα2 is determined. […] In this titered cytotoxicity neutralization experiment, higher neutralization efficiency against the IL13-PE38QQR cytotoxin, for the mutant IL13.K105R is observed (Madhankumar A. B., Mintz, A., and Debinski, W. (2004) Neoplasia (New York) 6, 15-22). IL13.K105R is able to neutralize the cytotoxicity to 99% at 100 ng/ml concentration when compared with its blocking efficiency at 1000 ng/ml concentration. However, the wild type IL-13 and the mutant IL13.K106R and IL13.R109K have only 86.5%, 86.7% and 80.7% of the cytotoxicity neutralization efficiency with respect to their neutralization efficiency at 1000 ng/ml concentration. […] The high affinity mutant IL13.K105R is used as a ligand to conjugate to liposomes in order to better target the glioma associated IL-13Rα2 receptor.

## COc1cccc2c1C(=O)c1c(O)c3c(c(O)c1C2=O)C[C@@](O)(C(=O)CO)C[C@@H]3O[C@H]1C[C@H](N)[C@H](O)[C@H](C)O1 [free DXR, doxorubicin]
U251 glioma cells
  intracellular doxorubicin fluorescence (flow cytometry curve shift): increase in the cell fluorescence

## IL13.K106R: mutant of IL-13
IL-13Rα2
  cytotoxicity neutralization efficiency with respect to neutralization efficiency at 1000 ng/ml: 86.7%

## wild type IL-13: human cytokine interleukin-13, expressed in E. coli as His-tagged protein
IL-13Rα2
  cytotoxicity neutralization efficiency with respect to neutralization efficiency at 1000 ng/ml: 86.5%
